Data: patent US20040250304A1 (EISAI R AND D MANAGEMENT, published 2004)

Columns and labels:
[1] = biological target: T1, synthetic Aβ (1-42) peptide (UniProt P05067 672-713); assay: solid phase binding: Aβ (1-42) immobilized on 96-well plates, culture supernatant applied, detection with anti-CLAC antibody and peroxidase secondary antibody, TMB; ten trials
T1 construct: domain: Aβ (1-42); also called beta-amyloid; amyloid-beta peptide
Protocol: In vitro binding of CLAC to Aβ was performed according to a method of Webster et al. (Am. J. Pathol., 150, 1531 (1997)).
The transformant (strain 9D2-1) permanently expressing human CLAC-P obtained in Example 3 was selection-cultured in DMEM medium containing 10% FBS and hygromycin for 4 days, and the culture supernatant was collected. Fifty μl (0.1 mg/ml) of synthetic Aβ (1-42) (Bachem) was immobilized to each well of 96-well micro-well plates (Greiner), and dried in a desiccator. Thereafter, blocking was performed with PBS-T containing 1% gelatin (Wako Junyaku) for 1 hour, and washed with PBS-T for 10 min (3×), and the culture supernatant obtained was applied. Similarly, culture supernatant of control HEK293 cells used in Example 3 was applied. After reaction at room temperature for 1 hour, washed with PBS-T for 10 min (5×), and then reacted with anti-CLAC antibody diluted with similar blocking solution (1/5000) at room temperature for 1 hour. After washing with PBS-T for 10 min (5×), reacted with a secondary antibody (anti-rabbit Ig, horseradish peroxidase bound whole antibody (Amersham)) diluted with similar blocking solution (1/5000) at room temperature for 1 hour. After washing with PBS-T for 10 min (5×), colour was developed with TMB reagent (Kirkegard & Perry Laboratories).

[2] = biological target: T1, synthetic Aβ (1-42) peptide; assay: Aβ (1-42) binding to HEK293 cells expressing human CLAC-P; Western blotting

T1 sequence (P05067 672-713 limits assumed): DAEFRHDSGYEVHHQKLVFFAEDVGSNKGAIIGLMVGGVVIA

B1: CLAC secreted by HEK293 transformant strain 9D2-1 permanently expressing human CLAC-P (other)
chain: EAPSECNCPAGPPGKRGKRGRRGESGPPGQPGPQGPPGPKGDKGEQGDQGPRMVFPKINHGFLSADQQLIKRRLIKGDQGQAGPPGPPGPPGPRGPPGDTGKDGPRGMPGVPGEPGKPGEQGLMGPLGPPGQKGSIGAPGIPGMNGQKGEPGLPGAVGQNGIPGPKGEPGEQGEKGDAGENGPKGDTGEKGDPGSSAAGIKGEPGESGRPGQKGEPGLPGLPGLPGIKGEPGFIGPQGEPGLPGLPGTKGERGEAGPPGRGERGEPGAPGPKGKQGESGTRGPKGSKGDRGEKGDSGAQGPRGPPGQKGDQGATKIIDYNGNLHEALQRITTLTVTGPPGPPGPQGLQGPKGEQGSPGIPGMDGEQGLKGSKGDMGDPGMTGEKGGIGLPGLPGANGMKGEKGDSGMPGPQGPSIIGPPGPPGPHGPPGPMGPHGLPGPKGTDGPMGPHGPAGPKGERGEKGAMGEPGPRGPYGLPGKDGEPGLDGFPGPRGEKGDLGEKGEKGFRGVKGEKGEPGQPGLDGLDAPCQLGPDGLPMPGCWQK
modifications: Usually, the first amino acid Glu of CLAC is cyclized to be pyroglutamic acid residue
notes: also called crude purified CLAC; culture supernatant of transformant permanently expressing CLAC-P
- fold colour development against control HEK293 supernatant [1]: ~50 times

B2: human CLAC-P (precursor of CLAC), full length (receptor)
chain: MLLKKHAGKGGGREPRSEDPTPAEQHCSRTMPPCAVLAALLSVVAVVSCLYLGVKTNDLQARIAALESAKGAPSIHLLPDTLDHLKTMVQEKVERLLAQKSYEHMAKIRIAREAPSECNCPAGPPGKRGKRGRRGESGPPGQPGPQGPPGPKGDKGEQGDQGPRMVFPKINHGFLSADQQLIKRRLIKGDQGQAGPPGPPGPPGPRGPPGDTGKDGPRGMPGVPGEPGKPGEQGLMGPLGPPGQKGSIGAPGIPGMNGQKGEPGLPGAVGQNGIPGPKGEPGEQGEKGDAGENGPKGDTGEKGDPGSSAAGIKGEPGESGRPGQKGEPGLPGLPGLPGIKGEPGFIGPQGEPGLPGLPGTKGERGEAGPPGRGERGEPGAPGPKGKQGESGTRGPKGSKGDRGEKGDSGAQGPRGPPGQKGDQGATKIIDYNGNLHEALQRITTLTVTGPPGPPGPQGLQGPKGEQGSPGIPGMDGEQGLKGSKGDMGDPGMTGEKGGIGLPGLPGANGMKGEKGDSGMPGPQGPSIIGPPGPPGPHGPPGPMGPHGLPGPKGTDGPMGPHGPAGPKGERGEKGAMGEPGPRGPYGLPGKDGEPGLDGFPGPRGEKGDLGEKGEKGFRGVKGEKGEPGQPGLDGLDAPCQLGPDGLPMPGCWQK
notes: Type II single pass transmembrane protein of 654 amino acids, expressed permanently in HEK293 cells (strains 9D2-1, 9D2-2, 9D2-11); also called full length recombinant CLAC-P protein; 9D2 antigen precursor
- binding result [2]: binds
